# B1: Chloroflexus aurantiacus F1FO ATP synthase c-subunit (natural protein, Chloroflexus aurantiacus J-10-fl, UniProt A9WGS9 1-76, looked up)
# chain: MEGLNLVATALAVGLGAIGPGVGIGIIVSGAVQAIGRNPEIENRVVTYMFIGIAFTEALAIFGLVIAFLIGFGVLQ
# Target: the molecule itself
# Test: cryo-EM structure
protein,measurement,value
B1,stoichiometry N,10

# — article PMC12002316 (Proceedings of the National Academy of Sciences of the …, 2025)
